{"source": "paper PMC10599278", "settings": "ubiquitination at K213"}
{"substance": "IGF2BP3: K213R", "values": [{"measurement": "other", "value": "decreases"}]}
